According to PMC7994203, “E3 ligase-inactivation rewires CBL interactome to elicit oncogenesis by hijacking RTK–CBL–CIN85 axis” (Oncogene, 2021):
Non-standard residues stand in square brackets, D forms with d. No end group written: not given here. pY = N[C@@H](Cc1ccc(OP(=O)(O)O)cc1)C(=O)O

T1: GST-WT-CBL (47–435) (UniProt P22681 47-435)
T1 construct: CBL fragment, residues 47-435; also called WT-CBL fragment; source: recombinant, purified (preparation in the Supplemental Information); not shown: GST, N-terminal, kept
T1 sequence (looked up): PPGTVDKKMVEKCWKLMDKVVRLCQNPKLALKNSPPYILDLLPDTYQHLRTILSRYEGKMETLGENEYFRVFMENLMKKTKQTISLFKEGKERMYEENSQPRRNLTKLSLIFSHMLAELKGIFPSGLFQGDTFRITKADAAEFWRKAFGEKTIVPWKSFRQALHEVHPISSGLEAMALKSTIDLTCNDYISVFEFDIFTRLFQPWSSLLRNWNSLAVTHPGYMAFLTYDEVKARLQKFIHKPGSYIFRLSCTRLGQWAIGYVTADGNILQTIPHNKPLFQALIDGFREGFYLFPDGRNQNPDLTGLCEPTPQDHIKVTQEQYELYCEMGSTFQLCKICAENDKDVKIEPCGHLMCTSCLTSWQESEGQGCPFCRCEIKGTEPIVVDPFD

T2: GST-CBL-Y371S (47–435) (UniProt P22681 47-435, Y371S)
T2 construct: CBL fragment, residues 47-435, with the MDS/MPN mutation Y371S; also called CBL-Y371S fragment; source: recombinant, purified (preparation in the Supplemental Information); not shown: GST, N-terminal, kept
T2 sequence (looked up): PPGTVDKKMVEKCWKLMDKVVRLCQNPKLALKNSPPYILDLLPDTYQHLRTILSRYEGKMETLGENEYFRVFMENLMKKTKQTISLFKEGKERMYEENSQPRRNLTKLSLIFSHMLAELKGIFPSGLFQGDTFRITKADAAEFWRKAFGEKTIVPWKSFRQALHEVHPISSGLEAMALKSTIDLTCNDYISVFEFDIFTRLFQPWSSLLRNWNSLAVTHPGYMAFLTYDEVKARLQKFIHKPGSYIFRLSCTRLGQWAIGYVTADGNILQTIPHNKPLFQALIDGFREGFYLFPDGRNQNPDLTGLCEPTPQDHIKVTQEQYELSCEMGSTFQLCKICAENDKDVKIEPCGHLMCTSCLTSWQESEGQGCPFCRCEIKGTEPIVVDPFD


Legend:
Assay in all cases: SPR; proteins immobilized via an N-terminal GST-tag, peptides as analyte; Biacore T200, steady-state affinity
GST-WT-CBL (47–435) = molecular target: T1, GST-WT-CBL (47–435); details: both partners purified
GST-CBL-Y371S (47–435) = molecular target: T2, GST-CBL-Y371S (47–435); details: both partners purified
GST-CIN85 full-length = molecular target: T3, GST-CIN85 full-length (UniProt Q96B97 1-665); details: both partners purified
T3 construct: CIN85 full-length; also called CIN85 FL; source: recombinant, purified (preparation in the Supplemental Information); not shown: GST, N-terminal, kept
T3 sequence (Q96B97 whole entry): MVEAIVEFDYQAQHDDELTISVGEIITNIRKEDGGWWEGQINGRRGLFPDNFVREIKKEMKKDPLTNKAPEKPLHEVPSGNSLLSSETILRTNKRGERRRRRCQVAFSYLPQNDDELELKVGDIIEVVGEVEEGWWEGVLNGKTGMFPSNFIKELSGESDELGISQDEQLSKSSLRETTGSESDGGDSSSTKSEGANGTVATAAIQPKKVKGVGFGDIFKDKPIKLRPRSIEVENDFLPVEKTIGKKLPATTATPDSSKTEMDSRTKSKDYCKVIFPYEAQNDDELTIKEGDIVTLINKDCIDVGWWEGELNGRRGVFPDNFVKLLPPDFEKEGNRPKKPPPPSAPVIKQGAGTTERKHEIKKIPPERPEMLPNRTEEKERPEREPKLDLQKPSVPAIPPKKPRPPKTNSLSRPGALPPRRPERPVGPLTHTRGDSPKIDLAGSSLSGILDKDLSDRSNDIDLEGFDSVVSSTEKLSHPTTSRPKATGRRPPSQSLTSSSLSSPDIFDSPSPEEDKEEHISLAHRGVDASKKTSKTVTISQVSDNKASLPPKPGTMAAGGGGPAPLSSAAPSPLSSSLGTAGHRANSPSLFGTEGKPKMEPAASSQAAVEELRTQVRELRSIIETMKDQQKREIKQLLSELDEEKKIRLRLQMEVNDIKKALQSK

GST-CIN85-SH3A = molecular target: GST-CIN85-SH3A
GST-CIN85-SH3B = molecular target: GST-CIN85-SH3B
GST-CIN85-SH3C = molecular target: GST-CIN85-SH3C

Row | Kd (GST-WT-CBL (47–435)) [µM] | Kd (GST-CBL-Y371S (47–435)) [µM] | Kd (GST-CIN85 full-length) [µM] | Kd (GST-CIN85-SH3A) [µM] | Kd (GST-CIN85-SH3B) [µM] | Kd (GST-CIN85-SH3C) [µM] | Binder
1 | 1.2 | 0.6 | – | – | – | – | LQR[pY]SSDPTGA (EGFR peptide with a phosphotyrosine; also called pY-EGFR peptide) [tyrosine-phosphorylated EGFR peptide]
2 | – | – | 5.5 | 35.6 | 2.3 | 68 | PERPPKPFPRRIN (also called proline-rich peptide of CBL) [PepC1]
